# Source: paper doi:10.1101/2021.02.19.432017 (bioRxiv, 2021)
# T1: Kindlin-2 (human, UniProt Q96AC1 1-680)
# T1 sequence: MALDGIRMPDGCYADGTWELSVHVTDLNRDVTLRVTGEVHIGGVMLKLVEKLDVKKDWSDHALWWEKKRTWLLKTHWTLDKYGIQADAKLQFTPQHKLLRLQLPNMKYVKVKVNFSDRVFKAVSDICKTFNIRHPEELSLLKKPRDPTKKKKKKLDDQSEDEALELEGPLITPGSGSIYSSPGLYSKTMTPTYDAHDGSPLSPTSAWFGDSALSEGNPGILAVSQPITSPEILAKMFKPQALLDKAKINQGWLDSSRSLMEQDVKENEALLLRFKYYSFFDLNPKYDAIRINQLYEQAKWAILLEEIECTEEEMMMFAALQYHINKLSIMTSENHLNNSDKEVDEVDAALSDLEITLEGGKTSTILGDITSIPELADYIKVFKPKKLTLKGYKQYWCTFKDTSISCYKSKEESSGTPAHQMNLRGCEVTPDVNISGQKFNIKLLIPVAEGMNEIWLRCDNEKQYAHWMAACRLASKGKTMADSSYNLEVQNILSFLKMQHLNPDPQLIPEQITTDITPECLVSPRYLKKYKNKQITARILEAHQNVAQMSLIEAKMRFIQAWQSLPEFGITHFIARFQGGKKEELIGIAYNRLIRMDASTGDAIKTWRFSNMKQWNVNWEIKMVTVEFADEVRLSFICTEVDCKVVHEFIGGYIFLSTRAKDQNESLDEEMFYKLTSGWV
# B1: Ras suppressor-1 (Rsu-1), wild type (natural protein)
# chain: MSKSLKKLVEESREKNQPEVDMSDRGISNMLDVNGLFTLSHITQLVLSHNKLTMVPPNIAELKNLEVLNFFNNQIEELPTQISSLQKLKHLNLGMNRLNTLPRGFGSLPALEVLDLTYNNLSENSLPGNFFYLTTLRALYLSDNDFEILPPDIGKLTKLQILSLRDNDLISLPKEIGELTQLKELHIQGNRLTVLPPELGNLDLTGQKQVFKAENNPWVTPIADQFQLGVSHVFEYIRSETYKYLYGRHMQANPEPPKKNNDKSKKISRKPLAAKNR
# B2: PINCH-2 LIM5S (size exclusion) (domain or fragment)
# chain: GDVCYNCSHVIEGDVVSALNKAWCVSCFSCSTCNSKLTLKNKFVEFDMKPVCKRCYEKFPLELKKRLKKLSELTSRK
# B3: Integrin linked kinase (ILK), subunit of the IPP complex (natural protein)
# chain: MDDIFTQCREGNAVAVRLWLDNTENDLNQGDDHGFSPLHWACREGRSAVVEMLIMRGARINVMNRGDDTPLHLAASHGHRDIVQKLLQYKADINAVNEHGNVPLHYACFWGQDQVAEDLVANGALVSICNKYGEMPVDKAKAPLRELLRERAEKMGQNLNRIPYKDTFWKGTTRTRPRNGTLNKHSGIDFKQLNFLTKLNENHSGELWKGRWQGNDIVVKVLKVRDWSTRKSRDFNEECPRLRIFSHPNVLPVLGACQSPPAPHPTLITHWMPYGSLYNVLHEGTNFVVDQSQAVKFALDMARGMAFLHTLEPLIPRHALNSRSVMIDEDMTARISMADVKFSFQCPGRMYAPAWVAPEALQKKPEDTNRRSADMWSFAVLLWELVTREVPFADLSNMEIGMKVALEGLRPTIPPGISPHVCKLMKICMNEDPAKRPKFDMIVPILEKMQDK
# Key:
# Assay in all cases: SEC
# [1] = molecular target: PINCH-1 (residues 1-325), subunit of the IPP complex (human, UniProt P48059 1-325)
# Sequence of PINCH-1 (residues 1-325), subunit of the IPP complex (P48059 whole entry, the tested form may be a part, one chain of several): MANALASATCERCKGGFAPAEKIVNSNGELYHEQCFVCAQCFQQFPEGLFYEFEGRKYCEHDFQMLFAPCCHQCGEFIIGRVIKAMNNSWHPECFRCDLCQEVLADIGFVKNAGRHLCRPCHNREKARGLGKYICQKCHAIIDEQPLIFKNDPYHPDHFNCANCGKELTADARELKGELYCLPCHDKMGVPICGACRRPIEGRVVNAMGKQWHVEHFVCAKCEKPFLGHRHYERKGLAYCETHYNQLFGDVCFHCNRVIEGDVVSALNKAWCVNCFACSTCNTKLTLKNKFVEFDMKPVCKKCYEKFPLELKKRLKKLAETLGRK
# [2] = molecular target: B1
# [3] = molecular target: T1, Kindlin-2
binder,measurement,setting,value
B1,binding result,[1],binds
B2,binding result,[2],binds
B3,binding result,[3],binds
